According to the supplement of paper PMC10065799, “High-throughput profiling of sequence recognition by tyrosine kinases and SH2 domains using bacterial peptide display” (eLife, 2023):

Assays:
AncSZ = experiment: phosphorylation enrichment, bacterial display (enrichment ratio); higher = better substrate or ligand; peptides without Tyr show the background
EPHB1 = EPHB1 (UniProt P54762); experiment: as above
EPHB2 = EPHB2 (UniProt P29323); experiment: as above
FGFR1 = FGFR1 (UniProt P11362); experiment: as above
FGFR1, sequence (P11362 whole entry, looked up): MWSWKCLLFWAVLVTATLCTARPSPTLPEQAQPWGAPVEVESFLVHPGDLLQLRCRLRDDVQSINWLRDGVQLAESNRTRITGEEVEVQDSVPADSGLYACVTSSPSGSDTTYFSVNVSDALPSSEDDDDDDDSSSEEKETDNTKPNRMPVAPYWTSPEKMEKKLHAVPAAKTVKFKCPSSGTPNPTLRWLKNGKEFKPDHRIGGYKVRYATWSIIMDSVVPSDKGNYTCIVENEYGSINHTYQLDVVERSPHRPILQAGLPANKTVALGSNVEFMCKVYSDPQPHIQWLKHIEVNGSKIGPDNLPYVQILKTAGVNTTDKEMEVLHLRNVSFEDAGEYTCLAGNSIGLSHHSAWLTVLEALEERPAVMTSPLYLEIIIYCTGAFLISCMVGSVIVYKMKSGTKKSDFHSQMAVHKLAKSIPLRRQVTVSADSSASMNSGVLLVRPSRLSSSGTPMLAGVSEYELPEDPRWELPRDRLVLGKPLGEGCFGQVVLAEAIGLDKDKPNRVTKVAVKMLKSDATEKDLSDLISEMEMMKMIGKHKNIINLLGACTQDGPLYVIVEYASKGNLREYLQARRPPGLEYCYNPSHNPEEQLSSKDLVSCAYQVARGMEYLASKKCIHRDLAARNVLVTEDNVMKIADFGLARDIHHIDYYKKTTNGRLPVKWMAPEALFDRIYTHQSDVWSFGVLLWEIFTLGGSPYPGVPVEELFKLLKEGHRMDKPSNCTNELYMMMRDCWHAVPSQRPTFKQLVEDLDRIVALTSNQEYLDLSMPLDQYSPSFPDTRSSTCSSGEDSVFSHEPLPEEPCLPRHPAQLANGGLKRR

FGFR3 = FGFR3 (UniProt P22607); experiment: as above
FGFR3, sequence (P22607 whole entry, looked up): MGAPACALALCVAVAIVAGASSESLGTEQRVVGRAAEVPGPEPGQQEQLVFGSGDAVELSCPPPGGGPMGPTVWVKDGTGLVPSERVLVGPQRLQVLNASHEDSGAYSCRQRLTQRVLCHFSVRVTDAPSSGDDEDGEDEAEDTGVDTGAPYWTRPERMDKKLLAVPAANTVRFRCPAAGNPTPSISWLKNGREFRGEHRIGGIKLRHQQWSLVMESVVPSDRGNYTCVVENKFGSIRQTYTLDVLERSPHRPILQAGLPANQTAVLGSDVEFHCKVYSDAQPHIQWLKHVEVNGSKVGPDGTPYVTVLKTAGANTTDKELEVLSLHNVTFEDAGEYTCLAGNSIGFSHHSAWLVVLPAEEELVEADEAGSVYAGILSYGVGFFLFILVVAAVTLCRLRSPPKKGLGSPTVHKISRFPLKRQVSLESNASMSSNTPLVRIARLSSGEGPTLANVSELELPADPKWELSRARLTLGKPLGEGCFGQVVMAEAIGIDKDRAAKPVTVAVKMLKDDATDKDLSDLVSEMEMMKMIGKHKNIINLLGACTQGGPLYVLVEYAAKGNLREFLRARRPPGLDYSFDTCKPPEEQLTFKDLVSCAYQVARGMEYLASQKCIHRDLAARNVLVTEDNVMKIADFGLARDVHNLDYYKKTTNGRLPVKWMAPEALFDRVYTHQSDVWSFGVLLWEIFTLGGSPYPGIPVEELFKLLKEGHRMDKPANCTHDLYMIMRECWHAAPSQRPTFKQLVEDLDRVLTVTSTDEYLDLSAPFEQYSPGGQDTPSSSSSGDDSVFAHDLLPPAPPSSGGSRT

Fer (mouse) = experiment: as above
Fes = Fes (UniProt P07332); experiment: as above
Fyn = Fyn (UniProt P06241); experiment: as above
Fyn, sequence (P06241 whole entry, looked up): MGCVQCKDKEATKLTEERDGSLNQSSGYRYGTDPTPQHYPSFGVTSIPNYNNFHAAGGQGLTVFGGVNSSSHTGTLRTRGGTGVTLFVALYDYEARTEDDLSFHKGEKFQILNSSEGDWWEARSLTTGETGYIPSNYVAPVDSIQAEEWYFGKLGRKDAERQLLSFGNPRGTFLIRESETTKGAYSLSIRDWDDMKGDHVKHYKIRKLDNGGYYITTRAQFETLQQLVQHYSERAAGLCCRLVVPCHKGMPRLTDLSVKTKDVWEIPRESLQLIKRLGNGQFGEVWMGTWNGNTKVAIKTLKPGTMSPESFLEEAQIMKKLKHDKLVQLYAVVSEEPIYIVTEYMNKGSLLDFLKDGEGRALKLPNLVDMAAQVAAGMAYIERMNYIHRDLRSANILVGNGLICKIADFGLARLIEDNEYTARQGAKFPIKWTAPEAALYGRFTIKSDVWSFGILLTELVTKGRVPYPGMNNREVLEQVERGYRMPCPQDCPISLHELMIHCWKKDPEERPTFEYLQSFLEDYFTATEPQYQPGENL

Hck = Hck (UniProt P08631); experiment: as above
Hck, sequence (P08631 whole entry, looked up): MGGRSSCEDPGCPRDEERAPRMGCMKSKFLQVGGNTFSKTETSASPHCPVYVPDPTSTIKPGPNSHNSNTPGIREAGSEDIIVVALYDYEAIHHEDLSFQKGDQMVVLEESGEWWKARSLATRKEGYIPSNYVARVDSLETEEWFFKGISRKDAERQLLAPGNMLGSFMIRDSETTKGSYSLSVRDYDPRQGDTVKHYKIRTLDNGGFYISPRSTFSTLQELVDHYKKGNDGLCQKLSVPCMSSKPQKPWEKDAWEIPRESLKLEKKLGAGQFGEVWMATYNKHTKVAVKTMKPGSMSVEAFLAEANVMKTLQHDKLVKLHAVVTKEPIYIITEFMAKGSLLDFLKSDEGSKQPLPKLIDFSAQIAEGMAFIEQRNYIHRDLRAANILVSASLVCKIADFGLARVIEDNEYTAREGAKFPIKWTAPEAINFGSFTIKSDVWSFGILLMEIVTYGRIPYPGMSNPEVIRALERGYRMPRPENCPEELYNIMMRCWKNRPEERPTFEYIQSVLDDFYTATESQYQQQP

Jak2 = Jak2 (UniProt O60674); experiment: as above
Jak2, sequence (O60674 whole entry, looked up): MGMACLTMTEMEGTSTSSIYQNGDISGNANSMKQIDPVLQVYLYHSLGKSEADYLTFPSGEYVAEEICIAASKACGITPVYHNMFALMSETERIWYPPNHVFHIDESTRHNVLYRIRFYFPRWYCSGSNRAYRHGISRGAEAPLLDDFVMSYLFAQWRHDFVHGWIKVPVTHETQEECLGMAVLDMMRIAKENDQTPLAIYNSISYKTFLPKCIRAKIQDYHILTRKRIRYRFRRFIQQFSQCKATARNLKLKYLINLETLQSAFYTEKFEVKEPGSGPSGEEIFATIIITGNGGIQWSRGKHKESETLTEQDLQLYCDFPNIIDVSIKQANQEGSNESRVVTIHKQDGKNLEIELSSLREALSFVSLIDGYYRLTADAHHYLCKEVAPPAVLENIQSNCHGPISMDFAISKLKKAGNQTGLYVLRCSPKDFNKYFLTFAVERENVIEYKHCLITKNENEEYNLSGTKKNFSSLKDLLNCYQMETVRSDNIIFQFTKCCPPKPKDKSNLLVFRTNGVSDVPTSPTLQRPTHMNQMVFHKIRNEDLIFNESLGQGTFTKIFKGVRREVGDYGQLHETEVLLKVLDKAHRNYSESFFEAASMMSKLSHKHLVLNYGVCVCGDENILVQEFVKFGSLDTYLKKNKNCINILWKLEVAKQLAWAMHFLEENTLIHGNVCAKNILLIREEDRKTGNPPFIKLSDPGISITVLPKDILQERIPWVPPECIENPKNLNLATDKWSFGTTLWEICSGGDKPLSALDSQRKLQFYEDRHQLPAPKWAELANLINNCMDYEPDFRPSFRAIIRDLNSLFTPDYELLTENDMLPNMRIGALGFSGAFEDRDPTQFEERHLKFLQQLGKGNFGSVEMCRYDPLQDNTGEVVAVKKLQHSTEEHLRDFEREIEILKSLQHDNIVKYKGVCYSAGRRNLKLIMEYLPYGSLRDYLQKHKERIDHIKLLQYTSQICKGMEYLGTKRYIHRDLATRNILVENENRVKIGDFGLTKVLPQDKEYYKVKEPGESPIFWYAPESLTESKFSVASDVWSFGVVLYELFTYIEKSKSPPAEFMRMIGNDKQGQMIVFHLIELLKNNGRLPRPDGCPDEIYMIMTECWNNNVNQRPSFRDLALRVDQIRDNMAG

MERTK = MERTK (UniProt Q12866); experiment: as above
c-Abl (mouse) = experiment: as above
c-Src = experiment: as above
Grb2 SH2 = Grb2 SH2 (UniProt P62993); experiment: SH2 binding enrichment of the phosphorylated peptide, bacterial display (enrichment ratio); higher = better substrate or ligand; peptides without Tyr show the background
Grb2 SH2, sequence (P62993 whole entry, looked up): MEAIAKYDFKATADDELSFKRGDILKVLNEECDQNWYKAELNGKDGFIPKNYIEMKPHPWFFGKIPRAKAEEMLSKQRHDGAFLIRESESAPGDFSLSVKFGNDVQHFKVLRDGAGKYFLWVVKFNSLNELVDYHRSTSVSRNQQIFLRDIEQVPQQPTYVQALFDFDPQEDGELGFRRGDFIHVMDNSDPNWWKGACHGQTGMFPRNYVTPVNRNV

SHP2-C SH2 = experiment: as above
c-Src SH2 = experiment: as above
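Throughout, for SH2 binding enrichment of the phosphorylated peptide, bacterial display: peptide library displayed on the E. coli surface as eCPX fusions, selected cells deep-sequenced, score is each peptide's frequency after selection divided by its frequency in the input.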
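Throughout, for phosphorylation enrichment, bacterial display: 11-residue human phosphosite peptides and single-mutation variants displayed on the E. coli surface, counted by deep sequencing, each peptide's frequency after selection divided by its frequency in the unselected input library; frequency after pTyr selection over input frequency; kinase dosed for 20-30% of maximal phosphorylation in three min.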

EPHB1, sequence (P54762 whole entry, looked up): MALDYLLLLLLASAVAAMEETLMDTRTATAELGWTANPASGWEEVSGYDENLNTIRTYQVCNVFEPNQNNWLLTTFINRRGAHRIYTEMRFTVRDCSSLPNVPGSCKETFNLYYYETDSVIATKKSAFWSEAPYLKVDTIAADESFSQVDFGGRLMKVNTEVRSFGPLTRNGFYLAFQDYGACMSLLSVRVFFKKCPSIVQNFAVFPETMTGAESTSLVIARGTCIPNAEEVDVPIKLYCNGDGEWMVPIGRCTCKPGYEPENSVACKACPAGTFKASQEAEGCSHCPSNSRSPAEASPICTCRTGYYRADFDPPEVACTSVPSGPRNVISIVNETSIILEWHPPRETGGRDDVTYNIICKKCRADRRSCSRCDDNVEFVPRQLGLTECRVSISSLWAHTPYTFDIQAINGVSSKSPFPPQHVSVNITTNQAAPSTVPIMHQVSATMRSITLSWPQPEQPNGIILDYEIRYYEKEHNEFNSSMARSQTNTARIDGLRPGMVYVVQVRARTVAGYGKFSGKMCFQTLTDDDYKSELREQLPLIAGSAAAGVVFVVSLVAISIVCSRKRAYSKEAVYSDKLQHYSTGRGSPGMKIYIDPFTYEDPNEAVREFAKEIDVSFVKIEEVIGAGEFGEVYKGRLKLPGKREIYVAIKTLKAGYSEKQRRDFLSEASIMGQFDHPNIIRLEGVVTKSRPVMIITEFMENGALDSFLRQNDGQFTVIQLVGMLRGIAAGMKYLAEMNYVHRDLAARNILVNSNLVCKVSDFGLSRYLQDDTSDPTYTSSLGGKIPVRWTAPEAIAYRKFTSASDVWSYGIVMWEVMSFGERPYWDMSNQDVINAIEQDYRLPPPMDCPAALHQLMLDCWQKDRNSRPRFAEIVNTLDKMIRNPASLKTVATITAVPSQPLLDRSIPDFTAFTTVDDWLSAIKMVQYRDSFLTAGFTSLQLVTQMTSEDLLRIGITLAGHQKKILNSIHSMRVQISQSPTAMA

Sequence	phosphorylation enrichment (AncSZ)	phosphorylation enrichment (EPHB1)	phosphorylation enrichment (EPHB2)	phosphorylation enrichment (FGFR1)	phosphorylation enrichment (FGFR3)	phosphorylation enrichment (Fer (mouse))	phosphorylation enrichment (Fes)	phosphorylation enrichment (Fyn)	phosphorylation enrichment (Hck)	phosphorylation enrichment (Jak2)	phosphorylation enrichment (MERTK)	phosphorylation enrichment (c-Abl (mouse))	phosphorylation enrichment (c-Src)	SH2 binding enrichment (Grb2 SH2)	SH2 binding enrichment (SHP2-C SH2)	SH2 binding enrichment (c-Src SH2)
EVEFEYPFRLH [SYP_Y73]	1	0.564	0.584	0.42	0.724	0.489	1.37	0.336	0.509	1.5	0.396	0.735	0.588	0.892	0.899	0.755
EVKEAYMGNVL [ACAT1_Y90]	0.804	0.341	0.593	0.596	0.505	0.528	0.848	0.474	0.42	0.626	0.444	0.506	0.402	0.881	0.699	0.542
EVVGRYSVHFA [MLH1_Y183_N187Y_YF]	0.92	0.612	0.49	0.529	0.676	0.424	0.978	0.579	0.504	0.692	0.448	0.531	0.436	0.909	0.798	0.532
EYGRRYGFSCQ [CCDC93_Y209_R213C]	0.931	0.59	0.594	0.526	0.696	0.526	1.12	0.53	0.617	1.2	0.476	0.881	0.483	0.725	0.492	0.418
EYQKKYSDADI [CKAP5_Y1860_K1857Q]	0.913	0.491	0.481	0.46	0.589	0.597	0.998	0.37	0.383	0.841	0.432	0.706	0.45	1	0.808	0.473
FADIAYNFRHA [PAH_Y166_G171A_YF]	0.661	0.293	0.342	0.386	0.462	0.348	0.591	0.497	0.432	0.524	0.388	0.506	0.473	0.987	0.903	0.547
FADIAYNYRDG [PAH_Y166_H170D]	0.942	0.404	0.501	0.397	0.622	0.376	0.836	0.371	0.352	1.04	0.363	0.545	0.418	1.12	0.575	0.639
FADIAYNYRHG [PAH_Y166]	0.711	0.45	0.503	0.403	0.561	0.456	0.887	0.423	0.462	0.754	0.404	0.577	0.398	0.877	0.717	0.52
FAELVYTGFWH [ASS1_Y322]	1.54	2.21	2.59	2.22	1.85	6.97	1.41	8.14	6	1.67	6.23	8.78	7.01	0.87	0.698	0.524
FARNSYVAGQY [G6PD_Y107]	0.516	0.322	0.4	0.403	0.415	0.347	0.544	0.389	0.385	0.502	0.405	0.449	0.535	0.826	0.651	0.495
FCRHNYGVGES [HLA-DRB1_Y112_V115G_YF]	0.657	0.421	0.527	0.387	0.573	0.396	0.687	0.498	0.339	0.62	0.372	0.606	0.373	1.02	0.827	0.738
FDGKEYDPVEA [MAPRE2_Y167_YF]	1.5	0.636	0.545	0.545	0.801	0.631	1.43	0.62	0.617	1.2	0.493	0.924	0.573	0.985	0.408	0.795
FDSPFYQDSLP [TSC1_Y508_R509Q]	0.848	0.503	0.489	0.357	0.599	2.88	1.09	0.482	0.521	0.805	0.431	0.737	0.473	0.917	0.688	0.586
FEEDSYVKRSQ [RET_Y905_YF]	0.904	0.52	0.492	0.41	0.552	0.41	1.11	0.523	0.487	0.881	0.417	0.645	0.47	0.799	0.858	0.603
FETVKYFNNER [ABCB7_Y345_YF]	0.828	0.564	0.445	0.417	0.606	0.465	0.898	0.39	0.381	0.702	0.288	0.567	0.345	0.862	1.04	0.509
FFCKFYNKSED [RYR1_Y4864_R4861C]	1.3	0.712	0.601	0.536	0.939	0.598	1.74	0.426	0.552	1.62	0.395	1.09	0.489	0.433	0.586	0.42
FFFDLYGGEKF [PTPN11_Y66_D61Y_YF]	0.923	0.53	0.418	0.415	0.534	0.418	0.979	0.66	0.981	0.993	0.371	0.665	1.15	0.831	1.36	0.631

Sequence	phosphorylation enrichment (AncSZ)	phosphorylation enrichment (EPHB1)	phosphorylation enrichment (EPHB2)	phosphorylation enrichment (FGFR1)	phosphorylation enrichment (FGFR3)	phosphorylation enrichment (Fer (mouse))	phosphorylation enrichment (Fes)	phosphorylation enrichment (Fyn)	phosphorylation enrichment (Hck)	phosphorylation enrichment (Jak2)	phosphorylation enrichment (MERTK)	phosphorylation enrichment (c-Abl (mouse))	phosphorylation enrichment (c-Src)	SH2 binding enrichment (Grb2 SH2)	SH2 binding enrichment (SHP2-C SH2)	SH2 binding enrichment (c-Src SH2)
FFRCHYPLTTL [TNS4_Y644_R642C]	0.914	0.509	0.512	0.463	0.696	0.39	1.01	0.374	0.48	0.79	0.4	0.595	0.43	0.907	1.03	0.738
FFTEEYVRAHP [DOCK2_Y1555_D1558A]	1.54	0.66	0.664	0.556	0.944	0.553	1.32	0.697	0.599	1.07	0.397	1.01	0.485	0.728	0.619	0.431
FGGRDYSLDEF [MYOF_Y1705_YF]	0.964	0.597	0.602	0.512	0.733	0.493	1.18	0.401	0.473	0.946	0.405	0.68	0.542	0.782	0.606	0.75
FGGTVCHSPVS [PRC1_Y511_Y511C]	0.688	0.38	0.493	0.524	0.524	0.452	0.627	0.447	0.505	0.506	0.456	0.548	0.576	0.756	0.508	0.596
FGSLLYKFAFK [FANCD2_Y458_YF]	0.91	0.464	0.445	0.527	0.678	0.336	1.09	0.306	0.37	0.964	0.4	0.726	0.453	0.983	0.732	0.449
FGSVDCWEKFF [EEF1AKNMT_Y16_Y16C]	1.14	0.474	0.624	0.511	0.569	0.462	1.24	0.436	0.426	1.04	0.459	0.801	0.461	0.944	1.03	0.83
FKEQGYHRLPS [RIN1_Y681_P686S_YF]	1.23	1.26	0.603	2.57	0.583	0.822	1.49	0.305	0.63	2.09	1.05	1.3	0.818	1.01	0.762	1.24
FKWAVYCIIGR [NUP93_Y391_R388W_YF]	1.28	1.19	0.673	0.614	0.714	1.02	1.28	0.554	0.699	1.03	0.534	0.902	0.652	1.98	1.39	1.21
FLGEEYVKAVG [TF_Y674_YF]	0.842	0.489	0.453	0.453	0.582	0.58	0.879	0.373	0.405	0.853	0.412	0.598	0.404	0.785	1.46	0.445
FLTQHYDAEPQ [ANG_Y38_K41E]	0.853	0.413	0.554	0.583	0.684	0.511	0.989	0.478	0.534	0.627	0.502	0.785	0.601	0.992	0.635	0.612
FQGGTYSKACT [FGG_Y380_S384C_YF]	0.528	0.404	0.366	0.448	0.439	0.46	0.589	0.35	0.473	0.503	0.446	0.633	0.447	0.918	0.746	0.783
FQHLRYIKQLG [SAMHD1_Y146_R143H]	0.685	0.374	0.371	0.393	0.611	0.436	0.775	0.393	0.395	0.706	0.363	0.502	0.331	0.722	0.746	0.496
FQNSLYAPDFS [FAM92A_Y226_R222Q_YF]	0.9	4.07	4.54	1.48	1.47	3.35	0.945	2.08	2.12	1.08	7.8	0.781	2.18	0.891	0.614	0.591
FRASFYRKGGC [ALK_Y1283_YF]	0.866	0.459	0.527	0.531	0.532	0.466	0.902	0.618	0.477	0.683	0.579	0.663	0.586	0.616	0.502	0.499
FRQNGYIPGSN [PCDHGA1_Y895_V894G_YF]	0.5	0.396	0.359	0.416	0.437	0.377	0.548	0.403	0.392	0.544	0.393	0.499	0.435	0.807	0.607	0.481
FSEVRYMKEPY [HIPK4_Y170_V171M]	0.852	0.425	0.496	0.485	0.72	0.437	0.988	0.36	0.536	0.781	0.463	0.695	0.432	1.06	0.757	0.484
